Source: patent publication US9951359B2, “Heat-stable, FE-dependent alcohol dehydrogenase for aldehyde detoxification” (UT-BATTELLE, LLC, priority 2013, dated 2018)
Read-outs that look alike come from different tables or passages of the source.

B1: BdhA: heat-stable, NADPH- and iron-dependent alcohol dehydrogenase cloned from Thermoanaerobacter pseudethanolicus 39E (SEQ ID NO: 2) (protein, listed as Thermoanaerobacter pseudethanolicus)
chain: MMKFEFYNPTRLIFGAGSLGQLGKVVNQYGKKALLVIGGGSVKKSGAFDRAVASLKAAGVLVVEFSGVEPNPRLSTVVRASELAKKEACDVVIGMGGGSVMDASKVIAASVLYEGDPKDMLVRAGKAPRLPERALPIITVPTLAATGSEMNNGAVITIDDEGEKLKTFVQAEVLYPRVAVVDPELTMTVPKNHTAFGVCDIITHVTEGYFNGIDGTPLQDRFAEGVILTVLEWGPKAVSDGSDLEARTQVQWASIVALNGWVQVGTNGAYPVHMIEHTLSALYDIPHGAGLAVVNPAWMRFAARFRPERFAQFAQRIFGLTATGKDTLSLAMEGIDKFEEFLRSIGCPTRLSELGIGEITEEMLFRYAEETLKVLQDEEGRLPGRPSLRKEDIVEILRMAM

What was measured:
[1] = tested on: Thermoanaerobacter pseudethanolicus 39E (Teth39E); assay: Growth of Teth39E with furan aldehydes (optical density at 600 nm); format: cell-based; conditions: for specific growth rate: 65° C.; for IC50: Thermoanaerobacter pseudethanolicus, read-out: furan aldehyde concentration which resulted in 50% inhibition of growth (IC50)
Procedure: Teth39E (DSMZ 2355) was purchased from Deutsche Sammlung von Mikroorganismen and Zellkulturen GmbH (DSMZ). Anaerobic growth medium was prepared anaerobically by a modified Hungate technique and consisted of 4.5 mM KCl, 4.7 mM NH4Cl, 2.5 mM MgSO4.7H2O, 1.0 mM NaCl, 0.7 mM CaCl2.2H2O, […] resazurin, 2.8 mM cysteine-HCl, 6.0 mM NaHCO3, 1 mM potassium phosphate buffer (pH 6.8), 10 mM 3-(N-morpholino)-propanesulfonic acid (pH 6.8), 1× Wolfe's trace minerals, 1× Wolfe's vitamin supplement, 0.1% (w/v) yeast extract, and 40 mM glucose [Miller and Wolin (1974) Appl. Microbiol. 27:985-987; Wolin et al. (1963) J. Biol. Chem. 238:2882-2886]. Furan aldehydes were added from degassed concentrated stock solutions. Cultures were grown at 65° C. from a 1% inoculum in Balch tubes (10 mL) or 125 mL serum bottles (50 mL) Cell growth was monitored by optical density at 600 nm, either directly in the Balch tube using a Spectronic 200 spectrophotometer (Thermo Fisher Scientific, Waltham, Mass.) or as 200 μL samples transferred to a 96-well plate and read on a Synergy Mx plate reader (BioTek, Winooski, Vt.). All growth experiments were performed in triplicate.
Lower concentrations of furfural (10 and 20 mM) and 5-hydroxymethylfurfural (10 mM) stimulated growth of Teth39E, with increased cell yields after 12 h for both (see FIGS. 1A and 1B). […] The IC50 for 5-HMF was between 20 and 30 mM after both 12 and 24 h.

[2] = tested on: protein encoded by the Teth39_1597 locus (bdhA); assay: Proteome comparison of Teth39E grown in the presence or absence of furfural; format: cell-based, Thermoanaerobacter pseudethanolicus 39E; conditions: Teth39E grown in the presence of 15 mM furfural
Procedure: To identify the enzymes responsible for furfural and 5-HMF conversion, the proteomes were compared for strain Teth39E grown in the presence or absence of 15 mM furfural.

BdhA (Teth39_1597) [3] = assay: Optimal temperature and pH of purified BdhA enzyme (butyraldehyde, NADPH); format: biochemical, Thermoanaerobacter pseudethanolicus 39E
Procedure: The optimal temperature for BdhA activity was determined from purified enzyme as follows. A 1 liter culture of E. coli BL21 (DE3) harboring the pET30a-BdhA expression construct (see FIG. 6A) was grown to mid-log phase and induced with 0.4 mM IPTG and allowed to incubate for 16 h at 30° C. with shaking at 250 rpm. The induced cells were harvested via centrifugation at 5,000×g for 20 min at 4° C. and washed 3 times with 40 mL ice-cold phosphate buffered saline (PBS) at pH 7.2 and placed on ice. The cell pellet was resuspended in binding buffer (20 mM sodium phosphate, 500 mM NaCl, 20-40 mM imidazole, pH 7.4) containing 0.2 mg/mL lysozyme, 20 μg/mL DNAse, 1 mM MgCl2, 1 mM PMSF and stirred for 30 min at room temperature. The cells were then subjected to 5×2 min rounds of sonication (Branson Sonifier 450 with microtip, duty cycle at 30%) while kept in an ice water bath. The lysate was centrifuged at 7,500×g for 20 min at 4° C. and the supernatant was transferred to a new 50 mL conical tube. […] For determining the optimal temperature for BdhA, 1 mL assays containing 100 mM phosphate buffer (pH 7.5), 20 mM butyraldehyde, and 0.25 mM NADPH were monitored for loss of absorbance at 340 nm for 20 seconds at 30-90° C. in 5° C. intervals. […]
The optimum pH was also determined for BdhA by using butyraldehyde as the substrate and NADPH as the cofactor. […]

BdhA (Teth39_1597) [4] = assay: Aldehyde reductase enzyme assay with whole cell lysates of E. coli overexpressing BdhA (NAD(P)H oxidation at 340 nm); format: biochemical, Thermoanaerobacter pseudethanolicus 39E; conditions: for specific activity with NADPH as a cofactor / BdhA Aldehyde Activities (specific activity): whole cell lysate; for BdhA Aldehyde Activities (specific activity): 60° C.; for BdhA Aldehyde Activities (specific activity) / Specific activity: aerobic
Procedure: Teth39E genomic DNA was isolated using the Wizard Genomic DNA Purification kit (Promega, Madison, Wis.). The bdha gene was PCR amplified using Phusion polymerase (New England Biolabs, Ipswich, Mass.) and cloned into pET30a (EMD Millipore, Billerica, Mass.) behind 6× His- and S-tags. Expression plasmids were transformed in BL21 (DE3) E. coli according to the manufacturer's protocol (Invitrogen, Grand Island, N.Y.). Cells were grown in 50 mL 2×YT medium at 37° C. to OD600 of 0.8-1.0, then induced with 100 μM isopropyl-β-D-thiogalactopyranoside and switched to 30° C. for 16 h. Cells were harvested at 4° C. (3,000×g, 30 min), washed in 50 mL 100 mM sodium phosphate buffer, pH 7 (buffer A), and re-suspended in 5 mL buffer A. Enzyme assays were performed aerobically at 60° C. with whole cell lysates and specific activity was determined by measuring the change in absorbance at 340 nm due to oxidation of NADPH or NADH.
Cell suspension (450 μL) was added to 0.1 mm zirconia beads (300 μL) and vortexed 4×60 sec with 30 sec on ice in between. Samples were centrifuged (14,000×g, 2 min) and the resulting supernatant was used for enzyme assays.
For the enzyme assays, Buffer A (1 mL), 10 mM NAD(P)H (25 μL), and 400 mM aldehyde (50 μL) were added to a 2 mL quartz cuvette, sealed with a butyl stopper, and equilibrated to 60° C. Assays were read at 340 nm (DU 800) for 150 sec to establish a baseline slope before whole cell lysate was added (1-5 μL). Cuvettes were inverted once to mix and read an additional 450 sec. The decrease in absorbance over time was calculated and the baseline slope was subtracted. NAD(P)H concentration was determined using the extinction coefficient (NADH: 6220 M^−1 cm ^−1, NADPH: 6270 M^−1 cm^−1) and specific activity was calculated as the change in μmoles NAD(P)H/min/mg of whole cell lysate protein. Protein concentration was determined using the Bradford assay (Bio-Rad, Hercules, Calif.) with bovine serum albumin as a standard. Specific activity was measured for the pET30a vector (control) and overexpressed Teth39_1597 (BdhA) with acetaldehyde, butyraldehyde, isobutyraldhyde, furfural, and 5-HMF. Furfural was also assayed under anaerobic conditions. BdhA activity was compared to the vector-only control.

Row | Molecule | specific growth rate ([1]; 10 mM furan aldehyde) | specific growth rate ([1]; 20 mM furan aldehyde) | IC50 ([1]; after 12 h) | IC50 ([1]; after 24 h) | expression of Teth39_1597 protein upregulated [2] | optimal temperature for BdhA activity (BdhA (Teth39_1597) [3]; 20 mM butyraldehyde, 0.25 mM NADPH, pH 7.5, 30-90° C.) | optimum pH (optimal relative activity) (BdhA (Teth39_1597) [3]; butyraldehyde, NADPH, buffers pH 4-10) | activity above the vector control using NADH as the cofactor (BdhA (Teth39_1597) [4]; NADH as cofactor) | specific activity with NADPH as a cofactor (BdhA (Teth39_1597) [4]; butyraldehyde as substrate) | activity against butyraldehyde (BdhA (Teth39_1597) [4]; butyraldehyde, NADPH) | specific activity with NADPH as a cofactor (BdhA (Teth39_1597) [4]; expressed in E. coli, various aldehydes) | BdhA Aldehyde Activities (specific activity) (BdhA (Teth39_1597) [4]; substrate 5-HMF, NADPH) | BdhA Aldehyde Activities (specific activity) (BdhA (Teth39_1597) [4]; substrate acetaldehyde, NADPH) | BdhA Aldehyde Activities (specific activity) (BdhA (Teth39_1597) [4]; substrate butyraldehyde, NADPH) | BdhA Aldehyde Activities (specific activity) (BdhA (Teth39_1597) [4]; substrate furfural, NADPH) | BdhA Aldehyde Activities (specific activity) (BdhA (Teth39_1597) [4]; substrate isobutyraldehyde, NADPH) | Specific activity (BdhA (Teth39_1597) [4]; with 5-HMF, NADPH) | Specific activity (BdhA (Teth39_1597) [4]; with furfural, NADPH)
1 | O=Cc1ccco1 [furfural] | 0.52 ± 0.03 h⁻¹ | 0.43 ± 0.03 h⁻¹ | 30 mM | 30 to 40 mM | approximately 7 fold |  |  |  |  |  |  |  |  |  |  |  |  | 
2 | O=Cc1ccc(CO)o1 [5-HMF, 5-hydroxymethyl furfural] | 0.51 ± 0.03 h⁻¹ |  | 20 to 30 mM | 20 to 30 mM |  |  |  |  |  |  |  |  |  |  |  |  |  | 
3 | B1 |  |  |  |  |  | 75 °C | 8.0 pH units | No activity was detected | at least 14 μmole/min/mg | approximately 14.58±3.57 μmoles/min/mg | at least 0.5 μmole/min/mg | 10.06 ± 0.80 | 4.54 ± 0.76 | 14.58 ± 3.57 | 4.97 ± 0.17 | 0.63 ± 0.29 | 10.06±0.80 U | 4.97±0.17 U
